Measurements from paper PMC3082577.

Columns and labels:
Conditions in all cases: glycan lost; control: wild type
[1] = Western blot of purified Kv3.1
[2] = whole cell patch clamp, inactivating current type
[3] = whole cell patch clamp, current pattern classification
[4] = whole cell patch clamp, 2 s pulse, +40 mV
[5] = train of five +40 mV pulses, whole cell
[6] = whole cell patch clamp, noninactivating current type, +40 mV
[7] = whole cell patch clamp, noninactivating current type
[8] = whole cell patch clamp, inactivating current type, +40 mV

| Protein | expression_or_secretion [1] | other: channel current deactivation time constant, other: τoff [2] | other: channel current, G-V slope factor, other: dV [2] | other: channel current, voltage of half activation, other: V0.5 [2] | other: share of inactivating whole cell current type, other: % inactivating current type [3] | other: channel current remaining after 2 s pulse (inactivation), other: % current remaining [4] | other: peak current remaining after repetitive depolarization [5] | other: channel current activation time constant, other: τon [6] | other: channel current rise time, other: rise time [6] | other: channel current deactivation time constant, other: τoff [7] | other: channel current, G-V slope factor, other: dV [7] | other: channel current, voltage of half activation, other: V0.5 [7] | other: channel current activation time constant, other: τon [8] | other: channel current rise time, other: rise time [8] |
| --- | --- | --- | --- | --- | --- | --- | --- | --- | --- | --- | --- | --- | --- | --- |
| Kv3.1: N220Q/N229Q (protein) parent chain: MGQGDESERIVINVGGTRHQTYRSTLRTLPGTRLAWLAEPDAHSHFDYDPRADEFFFDRHPGVFAHILNYYRTGKLHCPADVCGPLYEEELAFWGIDETDVEPCCWMTYRQHRDAEEALDSFGGAPLDNSADDADADGPGDSGDGEDELEMTKRLALSDSPDGRPGGFWRRWQPRIWALFEDPYSSRYARYVAFASLFFILVSITTFCLETHERFNPIVNKTEIENVRNGTQVRYYREAETEAFLTYIEGVCVVWFTFEFLMRVVFCPNKVEFIKNSLNIIDFVAILPFYLEVGLSGLSSKAAKDVLGFLRVVRFVRILRIFKLTRHFVGLRVLGHTLRASTNEFLLLIIFLALGVLIFATMIYYAERIGAQPNDPSASEHTHFKNIPIGFWWAVVTMTTLGYGDMYPQTWSGMLVGALCALAGVLTIAMPVPVIVNNFGMYYSLAMAKQKLPKKKKKHIPRPPQLGSPNYCKSVVNSPHHSTQSDTCPLAQEEILEINRADSKLNGEVAKAALANEDCPHIDQALTPDEGLPFTRSGTRERYGPCFLLSTGEYACPPGGGMRKDLCKESPVIAKYMPTEAVRVT | no change | increases, 6.0±0.3 vs 4.1±0.2 | no change, 9.6±0.3 vs 10.5±0.5 | no change, 8.1±0.6 vs 10.1±0.7 | increases, 68% vs 36% | increases, 62.3±3.1 vs 51.0±2.3 | decreases | increases, 7.4±1.2 vs 1.6±0.2 | increases, 10.2±1.5 vs 3.5±0.2 | increases, 5.6±0.2 vs 3.6±0.1 | no change, 18.7±0.5 vs 22.6±0.4 | no change, 22.3±0.4 vs 28.1±0.7 | increases, 7.5±0.8 vs 4.0±0.3 | increases, 15.9±1.5 vs 8.6±0.5 |
| Kv3.1: N229Q (protein) parent chain: MGQGDESERIVINVGGTRHQTYRSTLRTLPGTRLAWLAEPDAHSHFDYDPRADEFFFDRHPGVFAHILNYYRTGKLHCPADVCGPLYEEELAFWGIDETDVEPCCWMTYRQHRDAEEALDSFGGAPLDNSADDADADGPGDSGDGEDELEMTKRLALSDSPDGRPGGFWRRWQPRIWALFEDPYSSRYARYVAFASLFFILVSITTFCLETHERFNPIVNKTEIENVRNGTQVRYYREAETEAFLTYIEGVCVVWFTFEFLMRVVFCPNKVEFIKNSLNIIDFVAILPFYLEVGLSGLSSKAAKDVLGFLRVVRFVRILRIFKLTRHFVGLRVLGHTLRASTNEFLLLIIFLALGVLIFATMIYYAERIGAQPNDPSASEHTHFKNIPIGFWWAVVTMTTLGYGDMYPQTWSGMLVGALCALAGVLTIAMPVPVIVNNFGMYYSLAMAKQKLPKKKKKHIPRPPQLGSPNYCKSVVNSPHHSTQSDTCPLAQEEILEINRADSKLNGEVAKAALANEDCPHIDQALTPDEGLPFTRSGTRERYGPCFLLSTGEYACPPGGGMRKDLCKESPVIAKYMPTEAVRVT | no change | increases, 5.1±0.2 vs 4.1±0.2 | no change, 10.8±0.7 vs 10.5±0.5 | no change, 13.1±0.8 vs 10.1±0.7 | no change, 29% vs 36% | increases, 64.8±4.1 vs 51.0±2.3 | – | no change, 1.2±0.1 vs 1.6±0.2 | no change, 3.1±0.1 vs 3.5±0.2 | no change, 3.9±0.2 vs 3.6±0.1 | no change, 24.3±0.6 vs 22.6±0.4 | no change, 27.5±0.5 vs 28.1±0.7 | increases, 6.6±0.9 vs 4.0±0.3 | increases, 12.7±1.6 vs 8.6±0.5 |
| Kv3.1: N220Q (protein) parent chain: MGQGDESERIVINVGGTRHQTYRSTLRTLPGTRLAWLAEPDAHSHFDYDPRADEFFFDRHPGVFAHILNYYRTGKLHCPADVCGPLYEEELAFWGIDETDVEPCCWMTYRQHRDAEEALDSFGGAPLDNSADDADADGPGDSGDGEDELEMTKRLALSDSPDGRPGGFWRRWQPRIWALFEDPYSSRYARYVAFASLFFILVSITTFCLETHERFNPIVNKTEIENVRNGTQVRYYREAETEAFLTYIEGVCVVWFTFEFLMRVVFCPNKVEFIKNSLNIIDFVAILPFYLEVGLSGLSSKAAKDVLGFLRVVRFVRILRIFKLTRHFVGLRVLGHTLRASTNEFLLLIIFLALGVLIFATMIYYAERIGAQPNDPSASEHTHFKNIPIGFWWAVVTMTTLGYGDMYPQTWSGMLVGALCALAGVLTIAMPVPVIVNNFGMYYSLAMAKQKLPKKKKKHIPRPPQLGSPNYCKSVVNSPHHSTQSDTCPLAQEEILEINRADSKLNGEVAKAALANEDCPHIDQALTPDEGLPFTRSGTRERYGPCFLLSTGEYACPPGGGMRKDLCKESPVIAKYMPTEAVRVT | no change | no change, 4.7±0.4 vs 4.1±0.2 | no change, 9.9±0.4 vs 10.5±0.5 | no change, 9.2±0.8 vs 10.1±0.7 | increases, 65% vs 36% | increases, 60.2±2.7 vs 51.0±2.3 | – | no change, 1.4±0.4 vs 1.6±0.2 | no change, 3.2±0.4 vs 3.5±0.2 | no change, 4.0±0.3 vs 3.6±0.1 | no change, 19.8±0.6 vs 22.6±0.4 | no change, 30.7±0.6 vs 28.1±0.7 | no change, 5.3±1.0 vs 4.0±0.3 | increases, 10.6±0.9 vs 8.6±0.5 |
